Laboratory results published in patent publication US20210246218A1 (LYVGEN BIOPHARMA SUZHOU, published 2021).
Read-outs that look alike come from different tables or passages of the source.

Tests used:
CD137 protein [1] = target: T1, CD137 protein (UniProt Q07011 24-186, limits assumed); test: BLI (Octet Red 96), antibody on anti-human Fc sensors, CD137 protein in solution, 1:1 model
T1 construct: also called CD137 antigen; CD137 receptor
Experimental: (§1) The chimeric and humanized antibodies were tested in an antigen binding assay on Octet Red 96 to estimate binding kinetics. Antibodies were loaded onto anti-human Fc (AHC) biosensors. Loaded sensors were dipped into a serial dilution of CD137 protein (300 nM, 1:3 down, 7 points) in assay buffer (PBS with 0.1% BSA, 0.02% Tween-20 (pH 7.2)).

CD137 protein [2] = target: T1, CD137 protein; test: as above; remark: listed apart in the source
Experimental: as §1, with “KD Measurements of CD137 Antigen Binding were made according to the protocol described in Example 2 above. The” for “The”, “antigen-binding” for “antigen binding”

CD137 protein [3] = target: T1, CD137 protein; test: competition ELISA with CD137L: CD137 receptor coated, antibody titrated, CD137L added; A450-A620 falls with the antibody concentration (midpoint of an inhibition curve, called EC50 in the sheet's table)
Experimental: CD137 receptor was diluted in DPBS to 1 μg/mL, and then coated onto an ELISA plate (Corning, Catalog number: 9018, high binding) with a volume of 50 μL (0.05 μg) per well, and incubated at 4° C. overnight. The plate was decanted and washed once; assay diluent was added 200 μL/well. […] The diluted CD137 receptor was added to the assay plate, 50 μL/well, in duplicate. The plate was incubated one hour at room temperature. […] The plate was incubated one hour at room temperature and then washed three times with PBST. Goat anti-human IgG-H+L HRP conjugated at 1:100,000 20 dilution was added to the plate at 100 μL/well. The plate was then incubated one hour at room temperature followed by washing with PBST four times. The TMB substrate solution was added at 100 μL/well. The color was allowed to develop for 15 minutes, and was stopped with 100 μL/well 2N H2SO4. Absorbance at 450 nm and 620 nm was determined by a Tecan F200 Pro reader.

CD137 protein [4] = target: T1, CD137 protein; test: BLI (Octet Red 96); reference apparently the parental chimeric antibody 371
Experimental: as §1

Binder | Kd (CD137 protein [1]) | koff (CD137 protein [1]) | kon (CD137 protein [1]) | Kd (CD137 protein [2]) | koff (CD137 protein [2]) | kon (CD137 protein [2]) | EC50 (CD137 protein [3]) | fold higher off-rate (CD137 protein [4])
humanized anti-CD137 antibody clone 3715 (IgG4 S228P/kappa) (antibody, V domains shown) VH: QVQLVQSGAEVVKPGASVKVSCKASGYTFAGFEMHWVRQAPGQGLGWMGAIDPKTGGTDYNQKFKDRVTMTADTSISTAYMELSRLRSDDTAVYYCTRDLGYFDVWGQGTLVTVSS VL: DIQMTQSPSSLSASVGDRVTITCRASQDIRSNLNWYQQKPGGAVKLLIYYTSRLHSGVPSRFSGSGSGTDYTLTISSLQPEDFATYFCQQSEKLPRTFGGGTKVEIRR |  |  |  | 5.9 nM | 0.0018 s⁻¹ | 310000 M⁻¹ s⁻¹ |  | 
humanized anti-CD137 antibody clone 3716 (IgG4 S228P/kappa) (antibody, V domains shown) VH: QVQLVQSGAEVVKPGASVKVSCKASGYTFAGFEMHWVRQAPGQGLGWMGAIDPKTGGTDYNQKFKDRVTMTADTSISTAYMELSRLRSDDTAVYYCTRDLGYFDVWGQGTLVTVSS VL: DIQMTQSPSSLSASVGDRVTITCRASQDIRSNLNWYQQKPGGAVKLLIYYTSRLHSGVPSRFSGSGSGTDYTLTISSLQPEDFATYFCQQSEKLPRTFGGGTKLEIRR |  |  |  | 7 nM | 0.0022 s⁻¹ | 320000 M⁻¹ s⁻¹ |  | 
humanized anti-CD137 antibody clone 3714 (IgG4 S228P/kappa) (antibody, V domains shown) VH: QVQLVQSGAEVVKPGASVKVSCKASGYTFAGFEMHWVRQAPGQGLGWMGAIDPKTGGTDYNQKFKDRVTMTADTSISTAYMELSRLRSDDTAVYYCTRDLGYFDVWGQGTLVTVSS VL: DIQMTQSPSSLSASVGDRVTITCRASQDIRSNLNWYQQKPGKAPKLLIYYTSRLHSGVPSRFSGSGSGTDFTLTISSLQPEDFATYYCQQSEKLPRTFGGGTKVEIRR |  |  |  |  | < 1e-07 s⁻¹ | 130000 M⁻¹ s⁻¹ |  | 
humanized anti-CD137 antibody clone 3712 (IgG4 S228P/kappa) (antibody, V domains shown) VH: QVQLVQSGAEVKKPGASVKVSCKASGYTFAGFEMHWVRQAPGQGLEWMGAIDPKTGGTDYNQKFKDRVTMTRDTSISTAYMELSRLRSDDTAVYYCARDLGYFDVWGQGTLVTVSS VL: DIQMTQSPSSLSASVGDRVTITCRASQDIRSNLNWYQQKPGGAVKLLIYYTSRLHSGVPSRFSGSGSGTDYTLTISSLQPEDFATYFCQQSEKLPRTFGGGTKVEIRR | 10 nM | 0.0031 s⁻¹ | 310000 M⁻¹ s⁻¹ | 10 nM | 0.0031 s⁻¹ | 310000 M⁻¹ s⁻¹ |  | 3 fold
humanized anti-CD137 antibody clone 3719 (IgG4 S228P/kappa) (antibody, V domains shown) VH: QVQLVQSGAEVVKPGASVKLSCKASGYTFAGFEMHWIRQAPGQGLGWIGAIDPKTGGTDYNQKFKDRATLTADTSISTAYMELSRLRSDDTAVYYCTRDLGYFDVWGQGTLVTVSS VL: DIQMTQSPSSLSASVGDRVTITCRASQDIRSNLNWYQQKPGGAVKLLIYYTSRLHSGVPSRFSGSGSGTDYTLTISSLQPEDFATYFCQQSEKLPRTFGGGTKLEIRR |  |  |  | 8.5 nM | 0.0026 s⁻¹ | 310000 M⁻¹ s⁻¹ |  | 
humanized anti-CD137 antibody clone 3718 (IgG4 S228P/kappa) (antibody, V domains shown) VH: QVQLVQSGAEVVKPGASVKLSCKASGYTFAGFEMHWIRQAPGQGLGWIGAIDPKTGGTDYNQKFKDRATLTADTSISTAYMELSRLRSDDTAVYYCTRDLGYFDVWGQGTLVTVSS VL: DIQMTQSPSSLSASVGDRVTITCRASQDIRSNLNWYQQKPGGAVKLLIYYTSRLHSGVPSRFSGSGSGTDYTLTISSLQPEDFATYFCQQSEKLPRTFGGGTKVEIRR |  |  |  | 8.3 nM | 0.0026 s⁻¹ | 310000 M⁻¹ s⁻¹ |  | 

Other lines, results leading:

Kd (CD137 protein [1]) | koff (CD137 protein [1]) | kon (CD137 protein [1]) | Kd (CD137 protein [2]) | koff (CD137 protein [2]) | kon (CD137 protein [2]) | EC50 (CD137 protein [3]) | fold higher off-rate (CD137 protein [4]) | Binder
3.9 nM | 0.0011 s⁻¹ | 280000 M⁻¹ s⁻¹ | 3.9 nM | 0.0011 s⁻¹ | 280000 M⁻¹ s⁻¹ | 0.101 µg/mL |  | reference antibody 371 (murine/human chimeric) (antibody, V domains shown) VH: QVQLQQSGAELVRPGASVTLSCKASGYTFAGFEMHWIKQTPVHGLGWIGAIDPKTGGTDYNQKFKDKALLTADKSSNTAYMELRSLTSEDSAVYYCTRDLGYFDVWGTGTTVTVSS VL: DIQMTQTTSSLSASLGDRVTISCRASQDIRSNLNWYQQKPDGTVKLLIYYTSRLHSGVPSRFSGSGSGTDYSLTISNLEQEDIATYFCQQSEKLPRTFGGGTKLEIRR
 |  |  | 3.8 nM | 0.0011 s⁻¹ | 290000 M⁻¹ s⁻¹ |  |  | humanized anti-CD137 antibody clone 3713 (IgG4 S228P/kappa) (antibody, V domains shown) VH: QVQLVQSGAEVKKPGASVKVSCKASGYTFAGFEMHWVRQAPGQGLEWMGAIDPKTGGTDYNQKFKDRVTMTRDTSISTAYMELSRLRSDDTAVYYCARDLGYFDVWGQGTLVTVSS VL: DIQMTQSPSSLSASVGDRVTITCRASQDIRSNLNWYQQKPGGAVKLLIYYTSRLHSGVPSRFSGSGSGTDYTLTISSLQPEDFATYFCQQSEKLPRTFGGGTKLEIRR
 |  |  | 2.3 nM | 0.00034 s⁻¹ | 150000 M⁻¹ s⁻¹ |  |  | humanized anti-CD137 antibody clone 3717 (IgG4 S228P/kappa) (antibody, V domains shown) VH: QVQLVQSGAEVVKPGASVKLSCKASGYTFAGFEMHWIRQAPGQGLGWIGAIDPKTGGTDYNQKFKDRATLTADTSISTAYMELSRLRSDDTAVYYCTRDLGYFDVWGQGTLVTVSS VL: DIQMTQSPSSLSASVGDRVTITCRASQDIRSNLNWYQQKPGKAPKLLIYYTSRLHSGVPSRFSGSGSGTDFTLTISSLQPEDFATYYCQQSEKLPRTFGGGTKVEIRR
2.4 nM | 0.00046 s⁻¹ | 190000 M⁻¹ s⁻¹ | 2.5 nM | 0.00046 s⁻¹ | 190000 M⁻¹ s⁻¹ |  |  | humanized anti-CD137 antibody clone 3711 (IgG4 S228P/kappa) (antibody, V domains shown) VH: QVQLVQSGAEVKKPGASVKVSCKASGYTFAGFEMHWVRQAPGQGLEWMGAIDPKTGGTDYNQKFKDRVTMTRDTSISTAYMELSRLRSDDTAVYYCARDLGYFDVWGQGTLVTVSS VL: DIQMTQSPSSLSASVGDRVTITCRASQDIRSNLNWYQQKPGKAPKLLIYYTSRLHSGVPSRFSGSGSGTDFTLTISSLQPEDFATYYCQQSEKLPRTFGGGTKVEIRR
